Here are results for one molecule from patent US20180362645A1.

The target in this assay is human pituitary adenylate cyclase-activating polypeptide type I receptor (human) (UniProt P41586). As to the kind of experiment: cell-based or functional assay.
human pituitary adenylate cyclase-activating polypeptide type I receptor (human), sequence (P41586 21-468): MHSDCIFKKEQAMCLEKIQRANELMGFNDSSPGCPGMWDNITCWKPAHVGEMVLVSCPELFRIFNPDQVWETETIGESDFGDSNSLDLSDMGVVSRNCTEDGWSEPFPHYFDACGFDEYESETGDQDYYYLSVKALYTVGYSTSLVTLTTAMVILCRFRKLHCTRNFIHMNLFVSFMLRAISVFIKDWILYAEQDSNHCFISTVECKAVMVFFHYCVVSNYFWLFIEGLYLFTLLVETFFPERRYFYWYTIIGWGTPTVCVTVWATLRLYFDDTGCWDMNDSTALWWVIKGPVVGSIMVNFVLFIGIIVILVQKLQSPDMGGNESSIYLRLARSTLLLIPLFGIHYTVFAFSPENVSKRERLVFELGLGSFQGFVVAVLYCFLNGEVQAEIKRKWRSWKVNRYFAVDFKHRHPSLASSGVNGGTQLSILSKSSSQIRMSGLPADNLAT

In turn, HSDAVFTDNYTRLRKQMAVKKYLNSILN (ligand, UniProt P01282 125-152, looked up) [VIP] yielded a PAC1 EC50 (agonist activity) of 2.3 nM.
